Common to all, as to test: inhibition of fluorescent peptide substrate cleavage, tight binding equation
Experiment [1] addresses MMP-3 catalytic domain (Homo sapiens, UniProt P08254).
In experiment [2] the target is T1, MMP-1 catalytic domain (Homo sapiens, UniProt P03956).
T1 chain: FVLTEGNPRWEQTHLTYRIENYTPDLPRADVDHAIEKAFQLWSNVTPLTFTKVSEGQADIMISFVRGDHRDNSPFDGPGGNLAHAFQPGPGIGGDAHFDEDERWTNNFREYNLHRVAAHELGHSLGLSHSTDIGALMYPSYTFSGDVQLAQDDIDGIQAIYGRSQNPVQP

Experiment [3] deals with T2, ADAMTS-5 lacking the C-terminal thrombospondin domain (Homo sapiens, UniProt Q9UNA0).
T2 chain: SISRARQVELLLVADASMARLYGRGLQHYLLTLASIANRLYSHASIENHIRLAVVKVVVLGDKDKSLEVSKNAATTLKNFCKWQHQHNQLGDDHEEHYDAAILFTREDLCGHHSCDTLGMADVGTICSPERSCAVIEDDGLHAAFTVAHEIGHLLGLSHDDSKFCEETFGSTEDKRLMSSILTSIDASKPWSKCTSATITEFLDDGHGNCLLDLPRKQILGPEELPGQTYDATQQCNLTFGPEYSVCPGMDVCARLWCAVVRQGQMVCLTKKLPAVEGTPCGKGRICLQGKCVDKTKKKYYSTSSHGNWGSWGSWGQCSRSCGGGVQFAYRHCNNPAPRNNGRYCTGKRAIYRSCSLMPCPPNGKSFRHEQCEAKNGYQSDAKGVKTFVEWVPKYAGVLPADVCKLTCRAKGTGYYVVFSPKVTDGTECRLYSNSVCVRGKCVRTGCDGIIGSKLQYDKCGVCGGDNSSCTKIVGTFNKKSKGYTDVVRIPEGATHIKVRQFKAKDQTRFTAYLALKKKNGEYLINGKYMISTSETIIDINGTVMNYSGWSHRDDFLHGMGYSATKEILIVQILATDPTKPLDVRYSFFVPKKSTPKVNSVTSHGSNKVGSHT

Chain of MMP-3 catalytic domain (P08254 100-272): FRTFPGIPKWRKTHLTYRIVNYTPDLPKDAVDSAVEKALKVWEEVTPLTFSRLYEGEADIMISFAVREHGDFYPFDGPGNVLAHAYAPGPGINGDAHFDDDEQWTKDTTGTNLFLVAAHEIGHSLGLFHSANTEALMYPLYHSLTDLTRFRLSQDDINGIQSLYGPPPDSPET

B1: TIMP-3 (protein)
chain: CTCSPSHPQDAFCNSDIVIRAKVVGKKLVKEGPFGTLVYTIKQMKMYRGFTKMPHVQYIHTEASESLCGLKLEVNKYQYLLTGRVYDGKMYTGLCNFVERWDQLTLSQRKGLNYRYHLGCNCKIKSCYYLPCFVTSKNECLWTDMLSNFGYPGYQSKHYACIRQKGGYCSWYRGWAPPDKSIINATDP
modifications: suramin (0.05 µg/ml)
In the case of B1, the Ki came out at 0.76 nM in experiment [1], 0.65 nM in experiment [2] and 1.6 nM in experiment [3].

B2: TIMP-3 (protein)
chain: CTCSPSHPQDAFCNSDIVIRAKVVGKKLVKEGPFGTLVYTIKQMKMYRGFTKMPHVQYIHTEASESLCGLKLEVNKYQYLLTGRVYDGKMYTGLCNFVERWDQLTLSQRKGLNYRYHLGCNCKIKSCYYLPCFVTSKNECLWTDMLSNFGYPGYQSKHYACIRQKGGYCSWYRGWAPPDKSIINATDP
With B2, the Ki came to 1.14 nM in experiment [1], 0.66 nM in experiment [2] and 2.03 nM in experiment [3].
